Assay results: paper PMC9798703
Where two headings read alike, the source gives them in different places.

B1: GREB1 (structured_RNA)
RNA: GGGAUGCCGAAGAGUUGAUGUCAAUCUUUUUUUCCUAAGAAAAAAAGUCCGCGAGUAUUCC
B2: rERE duplex (dsRNA)
RNA 1: CAGGUCAGAGUGACCUGAUU
RNA 2: AAUCAGGUCACUCUGACCUG

How the values were obtained:
Assay in all cases: fluorescence anisotropy
ERα DBD-Ext [1] = target: T1, ERα DBD-Ext (Homo sapiens, UniProt P03372)
ERα DBD-Ext [2] = target: T1, ERα DBD-Ext; remark: listed apart in the source
ERα DBD-Ext [3] = target: T1, ERα DBD-Ext; remark: listed apart in the source
ERα DBD-Ext [4] = target: T1, ERα DBD-Ext; remark: listed apart in the source

| Binder | binding result (ERα DBD-Ext [1]) | Kd (ERα DBD-Ext [4]) | also measured |
| --- | --- | --- | --- |
| B1 | binds |  |  |
| AUACAACAUACAACAUACAACAUACAACAUACAAC (ssRNA) [ssRNA (env8)] |  |  | Kd (ERα DBD-Ext [2]): ~1.1 µM |
| UCAGGUCACUCUGACCUGGCUUCAGGUCAGAGUGACCUGA (structured_RNA) [rERE loop rescue] |  |  | binding result (ERα DBD-Ext [3]): binds |
| GGGAUCUGCCUGCAUCCUGACGCGGUGCCGUCCC (structured_RNA) [TFF1] | binds |  |  |
| CAGGUCAGAGUGACCUGAUUCGUCAGGUCACUCUGACCUG (structured_RNA) [rERE] |  | 0.13 ± 0.02 µM |  |
| B2 |  | 1.1 µM |  |
